This is an account of results in PMC3315512.

This assay concerns the target CeHsc70-Δ512 (lidless CeHsc70) (C. elegans), P09446.

CeHsc70-Δ512 (lidless CeHsc70) (C. elegans), P09446, sequence (P09446 1-512, stated change not applied): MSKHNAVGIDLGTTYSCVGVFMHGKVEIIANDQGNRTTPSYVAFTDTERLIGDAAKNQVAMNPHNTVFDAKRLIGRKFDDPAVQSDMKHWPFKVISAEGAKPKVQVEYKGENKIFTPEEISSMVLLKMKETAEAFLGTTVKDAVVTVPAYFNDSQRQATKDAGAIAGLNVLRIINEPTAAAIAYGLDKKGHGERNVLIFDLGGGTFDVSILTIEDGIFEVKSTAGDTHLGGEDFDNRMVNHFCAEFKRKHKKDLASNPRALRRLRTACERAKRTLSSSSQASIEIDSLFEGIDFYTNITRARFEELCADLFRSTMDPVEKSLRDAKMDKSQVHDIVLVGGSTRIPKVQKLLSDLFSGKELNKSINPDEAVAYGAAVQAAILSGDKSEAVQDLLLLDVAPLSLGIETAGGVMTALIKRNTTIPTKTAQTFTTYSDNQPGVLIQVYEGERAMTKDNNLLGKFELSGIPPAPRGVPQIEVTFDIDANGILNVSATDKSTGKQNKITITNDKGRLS

B1: BAG-1 (C. elegans, unlabelled), O44739 1-210 (natural protein)
chain: MKVNVSCSSVQTTIDILEENQGEDESILTLGQLRDRIATDNDVDVETMKLLHRGKFLQGADDVSLSTLNFKENDKIIVMGGKNALVDDAGFKMLMQYEKHNLSNLQKAYDLNLRDVADLERGFLEKPKQVEMGKKLEKKVKYFNEEAERHLETLDGMNIITETTPENQAKRNREKRKTLVNGIQTLLNQNDALLRRLQEYQSVLNGDIPE
Regarding B1, the apparent KD of BAG-1 from titration of the steady-state ATPase activity, standard buffer, 25°C was 6.5 µM.
